Consider five substances from US12295987B2, “Method of using a GIP/GLP1 co-agonist for diabetes” (Eli Lilly and Company, priority 2018, dated 2025).

For this experiment, the target named is T1, human gastric inhibitory peptide receptor (hGIPR) (Homo sapiens, UniProt P48546).
T1 construct: expressed in transfected cells; host or cells: HEK293
T1 sequence (P48546 22-466): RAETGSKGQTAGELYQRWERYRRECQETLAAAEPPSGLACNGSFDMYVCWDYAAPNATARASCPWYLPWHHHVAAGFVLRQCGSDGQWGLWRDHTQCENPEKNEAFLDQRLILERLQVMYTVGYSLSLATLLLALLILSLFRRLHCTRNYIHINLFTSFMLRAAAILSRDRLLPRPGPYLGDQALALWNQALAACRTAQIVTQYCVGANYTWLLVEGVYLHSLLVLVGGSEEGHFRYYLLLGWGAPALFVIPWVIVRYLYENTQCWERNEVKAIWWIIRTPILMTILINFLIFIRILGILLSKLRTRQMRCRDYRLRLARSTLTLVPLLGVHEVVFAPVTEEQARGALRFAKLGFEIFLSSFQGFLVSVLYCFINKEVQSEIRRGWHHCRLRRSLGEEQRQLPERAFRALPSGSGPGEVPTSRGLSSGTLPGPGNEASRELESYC
The experiment is described as follows: cAMP pharmacological functional assay in presence of 0.1% casein, hGIPR. The note with it: ratio of hGIPR to hGLP1R cAMP EC50 ratios. It counts as cell-based.

Numbered stars: 1 amine (or outer) side, 2 acyl side, 3 side chain; on linkers, the order of the positions; unused ones are H or OH. Square brackets hold non-standard residues; d marks the D form. Side chains are listed from the residue outwards. Ends that are not written are not given here. * marks the point of attachment. C20 diacid = O=C(O)CCCCCCCCCCCCCCCCCCC(=O)*; C18 diacid = O=C(O)CCCCCCCCCCCCCCCCC(=O)*; γGlu = O=C(O)[C@H](CCC(=O)[*:2])N[*:1]; αMeF = C[C@](N)(Cc1ccccc1)C(=O)O; αMeL = CC(C)C[C@](C)(N)C(=O)O; αMeP = C[C@@]1(C(=O)O)CCCN1; cTA = not defined here; AEEA = NCCOCCOCC(=O)O; Aib = CC(C)(N)C(=O)O

For the substance “Y-Aib-EGTFTSDYSILLDSK((2-[2-(2-Amino-ethoxy)-ethoxy]-acetyl)2-(γGlu)-CO—(CH2)18—CO2H)AQ-Aib-AFIEYLIEGGPSSGAPPPS-NH2 (Y[Aib]EGTFTSDYSILLDSK([AEEA-AEEA-γGlu-C20 diacid])AQ[Aib]AFIEYLIEGGPSSGAPPPS-NH2; N-terminus assumed; SMILES CC[C@H](C)[C@H](NC(=O)[C@H](CC(C)C)NC(=O)[C@H](Cc1ccc(O)cc1)NC(=O)[C@H](CCC(=O)O)NC(=O)[C@@H](NC(=O)[C@H](Cc1ccccc1)NC(=O)[C@H](C)NC(=O)C(C)(C)NC(=O)[C@H](CCC(N)=O)NC(=O)[C@H](C)NC(=O)[C@H](CCCCNC(=O)COCCOCCNC(=O)COCCOCCNC(=O)CC[C@H](NC(=O)CCCCCCCCCCCCCCCCCCC(=O)O)C(=O)O)NC(=O)[C@H](CO)NC(=O)[C@H](CC(=O)O)NC(=O)[C@H](CC(C)C)NC(=O)[C@H](CC(C)C)NC(=O)[C@@H](NC(=O)[C@H](CO)NC(=O)[C@H](Cc1ccc(O)cc1)NC(=O)[C@H](CC(=O)O)NC(=O)[C@H](CO)NC(=O)[C@@H](NC(=O)[C@H](Cc1ccccc1)NC(=O)[C@@H](NC(=O)CNC(=O)[C@H](CCC(=O)O)NC(=O)C(C)(C)NC(=O)[C@@H](N)Cc1ccc(O)cc1)[C@@H](C)O)[C@@H](C)O)[C@@H](C)CC)[C@@H](C)CC)C(=O)N[C@@H](CCC(=O)O)C(=O)NCC(=O)NCC(=O)N1CCC[C@H]1C(=O)N[C@@H](CO)C(=O)N[C@@H](CO)C(=O)NCC(=O)N[C@@H](C)C(=O)N1CCC[C@H]1C(=O)N1CCC[C@H]1C(=O)N1CCC[C@H]1C(=O)N[C@@H](CO)C(N)=O) [Peptide 9]”, the “[hGIPR/hGLP1R] EC50 Ratio” value was 2.45. On to “Y-Aib-EGTFTSDYSK((2-[2-(2-Amino-ethoxy)-ethoxy]-acetyl)2-(γGlu)-CO—(CH2)18—CO2H)LLDKIAQ-Aib-AFIEYLIEGGPSSGAPPPS-NH2 (Y[Aib]EGTFTSDYSK([AEEA-AEEA-γGlu-C20 diacid])LLDKIAQ[Aib]AFIEYLIEGGPSSGAPPPS-NH2; N-terminus assumed; SMILES CC[C@H](C)[C@H](NC(=O)[C@H](CCCCN)NC(=O)[C@H](CC(=O)O)NC(=O)[C@H](CC(C)C)NC(=O)[C@H](CC(C)C)NC(=O)[C@H](CCCCNC(=O)COCCOCCNC(=O)COCCOCCNC(=O)CC[C@H](NC(=O)CCCCCCCCCCCCCCCCCCC(=O)O)C(=O)O)NC(=O)[C@H](CO)NC(=O)[C@H](Cc1ccc(O)cc1)NC(=O)[C@H](CC(=O)O)NC(=O)[C@H](CO)NC(=O)[C@@H](NC(=O)[C@H](Cc1ccccc1)NC(=O)[C@@H](NC(=O)CNC(=O)[C@H](CCC(=O)O)NC(=O)C(C)(C)NC(=O)[C@@H](N)Cc1ccc(O)cc1)[C@@H](C)O)[C@@H](C)O)C(=O)N[C@@H](C)C(=O)N[C@@H](CCC(N)=O)C(=O)NC(C)(C)C(=O)N[C@@H](C)C(=O)N[C@@H](Cc1ccccc1)C(=O)N[C@H](C(=O)N[C@@H](CCC(=O)O)C(=O)N[C@@H](Cc1ccc(O)cc1)C(=O)N[C@@H](CC(C)C)C(=O)N[C@H](C(=O)N[C@@H](CCC(=O)O)C(=O)NCC(=O)NCC(=O)N1CCC[C@H]1C(=O)N[C@@H](CO)C(=O)N[C@@H](CO)C(=O)NCC(=O)N[C@@H](C)C(=O)N1CCC[C@H]1C(=O)N1CCC[C@H]1C(=O)N1CCC[C@H]1C(=O)N[C@@H](CO)C(N)=O)[C@@H](C)CC)[C@@H](C)CC) [Peptide 25]”, for which the “[hGIPR/hGLP1R] EC50 Ratio” value came to 3.23. Turning to “Y-Aib-cTA-GT-αMeF-TSDYSI-αMeL-LDEK((2-[2-(2-Amino-ethoxy)-ethoxy]-acetyl)2-(γGlu)-CO—(CH2)18—CO2H)AQ-Aib-AFIEYLIEGGPSSGAPPPS-NH2 (Y[Aib][cTA]GT[αMeF]TSDYSI[αMeL]LDEK([AEEA-AEEA-γGlu-C20 diacid])AQ[Aib]AFIEYLIEGGPSSGAPPPS-NH2; reading uncertain; also: printed as Y-Aib-cTA-GT-αMeF-TSDYSI-αMeL-LDEK((2-[2-(2-Amino-ethoxy)-ethoxy]-acetyl)2-(γGlu)-CO—(CH2)18—CO2H)AQ-Aib-AFIEYLIEGGPSSGAPPPS-NH2) [Peptide 120]”, the “[hGIPR/hGLP1R] EC50 Ratio” value was 5.24. For the substance “Y-Pro-EGTFTSDYSILLDKK((2-[2-(2-Amino-ethoxy)-ethoxy]-acetyl)2-(γGlu)-CO—(CH2)18—CO2H)AQ-Aib-AFIEYLIEGGPSSGAPPPS-NH2 (YPEGTFTSDYSILLDKK([AEEA-AEEA-γGlu-C20 diacid])AQ[Aib]AFIEYLIEGGPSSGAPPPS-NH2; N-terminus assumed; SMILES CC[C@H](C)[C@H](NC(=O)[C@H](CC(C)C)NC(=O)[C@H](Cc1ccc(O)cc1)NC(=O)[C@H](CCC(=O)O)NC(=O)[C@@H](NC(=O)[C@H](Cc1ccccc1)NC(=O)[C@H](C)NC(=O)C(C)(C)NC(=O)[C@H](CCC(N)=O)NC(=O)[C@H](C)NC(=O)[C@H](CCCCNC(=O)COCCOCCNC(=O)COCCOCCNC(=O)CC[C@H](NC(=O)CCCCCCCCCCCCCCCCCCC(=O)O)C(=O)O)NC(=O)[C@H](CCCCN)NC(=O)[C@H](CC(=O)O)NC(=O)[C@H](CC(C)C)NC(=O)[C@H](CC(C)C)NC(=O)[C@@H](NC(=O)[C@H](CO)NC(=O)[C@H](Cc1ccc(O)cc1)NC(=O)[C@H](CC(=O)O)NC(=O)[C@H](CO)NC(=O)[C@@H](NC(=O)[C@H](Cc1ccccc1)NC(=O)[C@@H](NC(=O)CNC(=O)[C@H](CCC(=O)O)NC(=O)[C@@H]1CCCN1C(=O)[C@@H](N)Cc1ccc(O)cc1)[C@@H](C)O)[C@@H](C)O)[C@@H](C)CC)[C@@H](C)CC)C(=O)N[C@@H](CCC(=O)O)C(=O)NCC(=O)NCC(=O)N1CCC[C@H]1C(=O)N[C@@H](CO)C(=O)N[C@@H](CO)C(=O)NCC(=O)N[C@@H](C)C(=O)N1CCC[C@H]1C(=O)N1CCC[C@H]1C(=O)N1CCC[C@H]1C(=O)N[C@@H](CO)C(N)=O) [Peptide 88]”, the “[hGIPR/hGLP1R] EC50 Ratio” value turned out to be 4.27. As for “Y-αMePro-EGTFTSDYSILLDEK((2-[2-(2-Amino-ethoxy)-ethoxy]-acetyl)2-(γGlu)-CO—(CH2)16—CO2H)AQQAFIEYLIEGGPSSG-NH2 (Y[αMeP]EGTFTSDYSILLDEK([AEEA-AEEA-γGlu-C18 diacid])AQQAFIEYLIEGGPSSG-NH2; N-terminus assumed; SMILES CC[C@H](C)[C@H](NC(=O)[C@H](CC(C)C)NC(=O)[C@H](Cc1ccc(O)cc1)NC(=O)[C@H](CCC(=O)O)NC(=O)[C@@H](NC(=O)[C@H](Cc1ccccc1)NC(=O)[C@H](C)NC(=O)[C@H](CCC(N)=O)NC(=O)[C@H](CCC(N)=O)NC(=O)[C@H](C)NC(=O)[C@H](CCCCNC(=O)COCCOCCNC(=O)COCCOCCNC(=O)CC[C@H](NC(=O)CCCCCCCCCCCCCCCCC(=O)O)C(=O)O)NC(=O)[C@H](CCC(=O)O)NC(=O)[C@H](CC(=O)O)NC(=O)[C@H](CC(C)C)NC(=O)[C@H](CC(C)C)NC(=O)[C@@H](NC(=O)[C@H](CO)NC(=O)[C@H](Cc1ccc(O)cc1)NC(=O)[C@H](CC(=O)O)NC(=O)[C@H](CO)NC(=O)[C@@H](NC(=O)[C@H](Cc1ccccc1)NC(=O)[C@@H](NC(=O)CNC(=O)[C@H](CCC(=O)O)NC(=O)[C@]1(C)CCCN1C(=O)[C@@H](N)Cc1ccc(O)cc1)[C@@H](C)O)[C@@H](C)O)[C@@H](C)CC)[C@@H](C)CC)C(=O)N[C@@H](CCC(=O)O)C(=O)NCC(=O)NCC(=O)N1CCC[C@H]1C(=O)N[C@@H](CO)C(=O)N[C@@H](CO)C(=O)NCC(N)=O) [Peptide 197]”, the figure is 4.52.
